Substitutions are numbered along the chain they refer to.

Data set [1] has as its target T1, topo VI KGRR-EEE (Methanosarcina mazei, UniProt Q8PUB7;Q8PUB8 1-369;1-621, K186E;R188E;R189E).
T1 sequence 1: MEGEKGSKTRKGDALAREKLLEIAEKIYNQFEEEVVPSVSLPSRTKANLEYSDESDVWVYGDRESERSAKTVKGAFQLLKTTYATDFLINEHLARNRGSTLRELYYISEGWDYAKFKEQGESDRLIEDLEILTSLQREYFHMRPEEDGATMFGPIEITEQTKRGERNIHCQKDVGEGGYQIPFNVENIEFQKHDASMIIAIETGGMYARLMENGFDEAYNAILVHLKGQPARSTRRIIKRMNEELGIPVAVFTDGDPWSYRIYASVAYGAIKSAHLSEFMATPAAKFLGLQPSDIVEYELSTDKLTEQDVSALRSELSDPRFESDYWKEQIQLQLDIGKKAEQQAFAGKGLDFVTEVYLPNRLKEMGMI
T1 sequence 2: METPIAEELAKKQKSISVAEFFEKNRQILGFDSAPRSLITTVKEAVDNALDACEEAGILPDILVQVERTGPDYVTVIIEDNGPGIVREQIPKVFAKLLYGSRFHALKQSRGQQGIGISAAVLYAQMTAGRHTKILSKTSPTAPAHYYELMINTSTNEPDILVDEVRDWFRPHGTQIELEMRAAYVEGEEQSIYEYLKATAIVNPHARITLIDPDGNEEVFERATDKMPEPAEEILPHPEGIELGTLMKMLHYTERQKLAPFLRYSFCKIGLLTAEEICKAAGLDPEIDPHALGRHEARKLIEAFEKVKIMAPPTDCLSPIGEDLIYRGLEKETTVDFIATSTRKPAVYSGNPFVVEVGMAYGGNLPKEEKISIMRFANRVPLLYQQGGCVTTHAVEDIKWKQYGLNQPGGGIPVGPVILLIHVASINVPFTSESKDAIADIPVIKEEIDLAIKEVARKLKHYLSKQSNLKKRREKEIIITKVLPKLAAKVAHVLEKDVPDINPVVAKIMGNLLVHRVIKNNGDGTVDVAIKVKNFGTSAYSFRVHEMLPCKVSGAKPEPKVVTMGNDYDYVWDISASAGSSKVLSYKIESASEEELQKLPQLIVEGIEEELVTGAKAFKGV
In words: fluorescence anisotropy; Fluorescence anisotropy, 20 nM FAM-labelled DNA, topo VI 0 and 3.9-4000 nM, no nucleotide; buffer, salt, pH and temperature not given in supplied text. Particulars: protein: recombinant; tags: N-terminal His6-TEV on Top6B, removed; chain copies: 2;2; label: 5'-FAM strand 1; blunt. Background: In fluorescence polarisation assays a small probe gives low polarisation when free and higher when bound to something large.

The next data set addresses T2, topo VI H2TH-EEE (Methanosarcina mazei, UniProt Q8PUB7;Q8PUB8 1-369;1-621, R263E;K268E;K308E).
T2 sequence 1: T1 sequence 1
T2 sequence 2: T1 sequence 2 with E186K, E188R, E189R, R263E, K268E, K308E
Described as above. Particulars: protein: recombinant, tags: N-terminal His6-TEV on Top6B, removed, chain copies: 2;2.

Another data set concerns the target T3, topo VI KGRR-AAA (Methanosarcina mazei, UniProt Q8PUB7;Q8PUB8 1-369;1-621, K186A;R188A;R189A).
T3 sequence 1: T1 sequence 1
T3 sequence 2: T1 sequence 2 with E186A, E188A, E189A
Nature of the data set: fluorescence anisotropy; FA: 20 nM probe, 50 mM K-glutamate, 20 mM HEPES-KOH pH 7.5, 10 mM MgCl2, 5% glycerol, 1 mM TCEP, 0.1 mg/mL BSA; incubated on ice, read at ambient temperature; competition with 100 nM enzyme. The following applies: protein: recombinant; tags: N-terminal His6-TEV on Top6B, removed; chain copies: 2;2; label: 5'-FAM strand 1; blunt.

For data set [2], the target named is T1, topo VI KGRR-EEE. The description is as above. Particulars: protein: recombinant; tags: N-terminal His6-TEV on Top6B, removed; chain copies: 2;2; label: 5'-FAM strand 1; blunt.

B1: 30 bp duplex (dsDNA)
DNA 1: CAAAAAGGAAGAGTATGAGTATTCAACATC
DNA 2: GATGTTGAATACTCATACTCTTCCTTTTTG
The Kd is the equilibrium constant for the complex coming apart. Regarding B1, the dissociation constant Kd with topo VI KGRR-EEE [1] was 82 ± 7 nM.

B2: 60 bp duplex (dsDNA)
DNA 1: CGCTTCAATAATATTGAAAAAGGAAGAGTATGAGTATTCAACATTTCCGTGTCGCCCTTC
DNA 2: GAAGGGCGACACGGAAATGTTGAATACTCATACTCTTCCTTTTTCAATATTATTGAAGCG
As to B2, the “apparent K (half saturation)” value in the data set with topo VI H2TH-EEE (label: 5'-FAM strand 1, blunt) stood at 109 ± 3 nM. The dissociation constant (Kd) with topo VI KGRR-EEE [1] amounted to 119 ± 3 nM; with topo VI KGRR-AAA it was 99 ± 2 nM; with topo VI KGRR-EEE [2], 119 ± 3 nM.

B3: 16 x 20 bp stacked junction (structured_DNA)
DNA 1: CGAATACTCAGCTCAACCGAAAGGTTGAGCCTTCGCTCGAAAGAGCGAAGTACTCTTCCG
DNA 2: CGGAAGAGTATGAGTATTCG
As to B3, in the data set with topo VI H2TH-EEE (label: 5'-FAM strand 2, four-way Holliday junction, stacked-X, two GAAA-capped arms), the Kd is 90 ± 4 nM.

B4: 20 bp duplex (dsDNA)
DNA 1: CGGAAGAGTATGAGTATTCG
DNA 2: CGAATACTCATACTCTTCCG
B4: the Kd with topo VI H2TH-EEE (label: 5'-FAM strand 1, blunt) came out at 222 ± 11 nM; with topo VI KGRR-EEE [1] it was 338 ± 15 nM.

B5: 70 bp duplex (dsDNA)
DNA 1: CCAAATGCTTCAATAATATTGAAAAAGGAAGAGTATGAGTATTCAACATTTCCGTGTCGCCCTTATTCCC
DNA 2: GGGAATAAGGGCGACACGGAAATGTTGAATACTCATACTCTTCCTTTTTCAATATTATTGAAGCATTTGG
Take B5: the “apparent K (half saturation)” value in the data set with topo VI H2TH-EEE (label: 5'-FAM strand 1, blunt) is 103 ± 3 nM. In addition, the Kd with topo VI KGRR-EEE [1] worked out at 193 ± 4 nM.

B6: 40 bp duplex (dsDNA)
DNA 1: CTATTGAAAAAGGAAGAGTATGAGTATTCAACATTTCCGC
DNA 2: GCGGAAATGTTGAATACTCATACTCTTCCTTTTTCAATAG
On to B6, for which the equilibrium dissociation constant (Kd) in the data set with topo VI KGRR-EEE [1] turned out to be 75 ± 4 nM.
